Experimental findings from PMC2663784 are described below.

The term stoichiometry N denotes the number of molecules, sites or subunits per partner or assembly.

This assay addresses humanized 3S193 VL-0-VH scFv multimer (humanized (mouse CDRs on human frameworks)). Nature of the assay: SEC. (In general: In gel filtration, larger molecules generally elute earlier.)

Values joined by “and” are separate entries in the source; they are usually repeats but may differ in a detail not shown here. Identical values can stand only once.

B1: humanized 3S193 VL-0-VH scFv multimer (scFv, V domains shown)
VH: EVQLVESGGGVVQPGRSLRLSCSTSGFTFSDYYMYWVRQAPGKGLEWVAYMSNVGAITDYPDTVKGRFTISRDNSKNTLFLQMDSLRPEDTGVYFCARGTRDGSWFAYWGQGTPVTVSS
VL: DIQMTQSPSSLSASVGDRVTITCRSSQRIVHSNGNTYLEWYQQTPGKAPKLLIYKVSNRFSGVPSRFSGSGSGTDFTFTISSLQPEDIATYYCFQGSHVPFTFGQGTKLQIT
Regarding B1, the stoichiometry N is 3 and 4.
